# Columns and labels:
# [1] = system: HeLa Kyoto; test: solubility change mitosis vs G1/S (difference of NP-40 vs SDS log2 ratios) (log2 ratio difference); higher = more soluble in mitosis
# [2] = system: HeLa Kyoto; test: solubility in G1/S (NP-40 vs SDS abundance) (log2 ratio); higher = more soluble; settings: cell cycle stage: G1/S
# [3] = system: HeLa Kyoto; test: melting temperature (median over replicates), in situ; higher = more thermally stable
# [4] = system: HeLa Kyoto; test: thermal stability score vs G1/S (z-score of summed log2 fold changes over temperatures); higher = more thermally stable than in G1/S
# [5] = cell cycle stage: early G1 (4.5 h after nocodazole release)
# 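Wherever melting temperature (median over replicates), in situ is given: HeLa Kyoto cells synchronized by double thymidine or nocodazole block, proteins quantified by TMT10plex mass spectrometry, three independent biological replicates.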
# 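Wherever solubility change mitosis vs G1/S (difference of NP-40 vs SDS log2 ratios) is given: synchronized HeLa Kyoto cells (double thymidine block for G1/S, nocodazole release for mitosis), protein amounts in NP-40 versus SDS lysates quantified by mass spectrometry, three biological replicates.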
# 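Wherever solubility in G1/S (NP-40 vs SDS abundance) is given: HeLa Kyoto cells arrested at G1/S by double thymidine block, proteins quantified by TMT10plex mass spectrometry in mild NP-40 versus SDS extracts, three biological replicates.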
# 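Wherever thermal stability score vs G1/S (z-score of summed log2 fold changes over temperatures) is given: synchronized HeLa Kyoto cells, proteins quantified by TMT10plex mass spectrometry, three biological replicates, mitosis taken 0.5 h after nocodazole release, G1/S directly after double thymidine block.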
Sequence,solubility change mitosis (log2) [1],solubility in G1/S (log2) [2],melting temperature ([3]; cell cycle stage: G1/S) [°C],melting temperature ([3]; cell cycle stage: mitosis) [°C],"thermal stability score [4, 5]",thermal stability score ([4]; cell cycle stage: mitosis)
MELQDPKMNGALPSDAVGYRQEREGFLPSRGPAPGSKPVQFMDFEGKTSFGMSVFNLSNAIMGSGILGLAYAMAHTGVIFFLALLLCIALLSSYSIHLLLTCAGIAGIRAYEQLGQRAFGPAGKVVVATVICLHNVGAMSSYLFIIKSELPLVIGTFLYMDPEGDWFLKGNLLIIIVSVLIILPLALMKHLGYLGYTSGLSLTCMLFFLVSVIYKKFQLGCAIGHNETAMESEALVGLPSQGLNSSCEAQMFTVDSQMSYTVPIMAFAFVCHPEVLPIYTELCRPSKRRMQAVANVSIGAMFCMYGLTATFGYLTFYSSVKAEMLHMYSQKDPLILCVRLAVLLAVTLTVPVVLFPIRRALQQLLFPGKAFSWPRHVAIALILLVLVNVLVICVPTIRDIFGVIGSTSAPSLIFILPSIFYLRIVPSEVEPFLSWPKIQALCFGVLGVLFMAVSLGFMFANWATGQSRMSGH [SLC38A5],-0.0437,-0.0136,56.1,53.1,-1.85,-3.24
MAAPGSCALWSYCGRGWSRAMRGCQLLGLRSSWPGDLLSARLLSQEKRAAETHFGFETVSEEEKGGKVYQVFESVAKKYDVMNDMMSLGIHRVWKDLLLWKMHPLPGTQLLDVAGGTGDIAFRFLNYVQSQHQRKQKRQLRAQQNLSWEEIAKEYQNEEDSLGGSRVVVCDINKEMLKVGKQKALAQGYRAGLAWVLGDAEELPFDDDKFDIYTIAFGIRNVTHIDQALQEAHRVLKPGGRFLCLEFSQVNNPLISRLYDLYSFQVIPVLGEVIAGDWKSYQYLVESIRRFPSQEEFKDMIEDAGFHKVTYESLTSGIVAIHSGFKL [COQ5],0.0212,-0.0892,54.4,56.3,-1.07,-0.586
MDAPGALAQTAAPGPGRKELKIVIVGDGGCGKTSLLMVYSQGSFPEHYAPSVFEKYTASVTVGSKEVTLNLYDTAGQEDYDRLRPLSYQNTHLVLICYDVMNPTSYDNVLIKWFPEVTHFCRGIPMVLIGCKTDLRKDKEQLRKLRAAQLEPITYMQGLSACEQIRAALYLECSAKFRENVEDVFREAAKVALSALKKAQRQKKRRLCLLL [RHOF],-0.104,-0.0436,53.8,53,0.493,0.369
MYGSARSVGKVEPSSQSPGRSPRLPRSPRLGHRRTNSTGGSSGSSVGGGSGKTLSMENIQSLNAAYATSGPMYLSDHENVGSETPKSTMTLGRSGGRLPYGVRMTAMGSSPNIASSGVASDTIAFGEHHLPPVSMASTVPHSLRQARDNTIMDLQTQLKEVLRENDLLRKDVEVKESKLSSSMNSIKTFWSPELKKERALRKDEASKITIWKEQYRVVQEENQHMQMTIQALQDELRIQRDLNQLFQQDSSSRTGEPCVAELTEENFQRLHAEHERQAKELFLLRKTLEEMELRIETQKQTLNARDESIKKLLEMLQSKGLSAKATEEDHERTRRLAEAEMHVHHLESLLEQKEKENSMLREEMHRRFENAPDSAKTKALQTVIEMKDSKISSMERGLRDLEEEIQMLKSNGALSTEEREEEMKQMEVYRSHSKFMKNKVEQLKEELSSKEAQWEELKKKAAGLQAEIGQVKQELSRKDTELLALQTKLETLTNQFSDSKQHIEVLKESLTAKEQRAAILQTEVDALRLRLEEKETMLNKKTKQIQDMAEEKGTQAGEIHDLKDMLDVKERKVNVLQKKIENLQEQLRDKEKQMSSLKERVKSLQADTTNTDTALTTLEEALAEKERTIERLKEQRDRDEREKQEEIDNYKKDLKDLKEKVSLLQGDLSEKEASLLDLKEHASSLASSGLKKDSRLKTLEIALEQKKEECLKMESQLKKAHEAALEARASPEMSDRIQHLEREITRYKDESSKAQAEVDRLLEILKEVENEKNDKDKKIAELERQVKDQNKKVANLKHKEQVEKKKSAQMLEEARRREDNLNDSSQQLQDSLRKKDDRIEELEEALRESVQITAEREMVLAQEESARTNAEKQVEELLMAMEKVKQELESMKAKLSSTQQSLAEKETHLTNLRAERRKHLEEVLEMKQEALLAAISEKDANIALLELSSSKKKTQEEVAALKREKDRLVQQLKQQTQNRMKLMADNYEDDHFKSSHSNQTNHKPSPDQIIQPLLELDQNRSKLKLYIGHLTTLCHDRDPLILRGLTPPASYNLDDDQAAWENELQKMTRGQLQDELEKGERDNAELQEFANAILQQIADHCPDILEQVVNALEESS [ERC1],0.00205,0.626,48.4,50.1,1.35,1.65
MSGFLEELLGEKLVTGGGEEVDVHSLGARGISLLGLYFGCSLSAPCAQLSASLAAFYGRLRGDAAAGPGPGAGAGAAAEPEPRRRLEIVFVSSDQDQRQWQDFVRDMPWLALPYKEKHRKLKLWNKYRISNIPSLIFLDATTGKVVCRNGLLVIRDDPEGLEFPWGPKPFREVIAGPLLRNNGQSLESSSLEGSHVGVYFSAHWCPPCRSLTRVLVESYRKIKEAGQNFEIIFVSADRSEESFKQYFSEMPWLAVPYTDEARRSRLNRLYGIQGIPTLIMLDPQGEVITRQGRVEVLNDEDCREFPWHPKPVLELSDSNAAQLNEGPCLVLFVDSEDDGESEAAKQLIQPIAEKIIAKYKAKEEEAPLLFFVAGEDDMTDSLRDYTNLPEAAPLLTILDMSARAKYVMDVEEITPAIVEAFVNDFLAEKLKPEPI [NXN],-0.204,0.175,51,51,1.06,1.73
MSPVLHFYVRPSGHEGAAPGHTRRKLQGKLPELQGVETELCYNVNWTAEALPSAEETKKLMWLFGCPLLLDDVARESWLLPGSNDLLLEVGPRLNFSTPTSTNIVSVCRATGLGPVDRVETTRRYRLSFAHPPSAEVEAIALATLHDRMTEQHFPHPIQSFSPESMPEPLNGPINILGEGRLALEKANQELGLALDSWDLDFYTKRFQELQRNPSTVEAFDLAQSNSEHSRHWFFKGQLHVDGQKLVHSLFESIMSTQESSNPNNVLKFCDNSSAIQGKEVRFLRPEDPTRPSRFQQQQGLRHVVFTAETHNFPTGVCPFSGATTGTGGRIRDVQCTGRGAHVVAGTAGYCFGNLHIPGYNLPWEDPSFQYPGNFARPLEVAIEASNGASDYGNKFGEPVLAGFARSLGLQLPDGQRREWIKPIMFSGGIGSMEADHISKEAPEPGMEVVKVGGPVYRIGVGGGAASSVQVQGDNTSDLDFGAVQRGDPEMEQKMNRVIRACVEAPKGNPICSLHDQGAGGNGNVLKELSDPAGAIIYTSRFQLGDPTLNALEIWGAEYQESNALLLRSPNRDFLTHVSARERCPACFVGTITGDRRIVLVDDRECPVRRNGQGDAPPTPLPTPVDLELEWVLGKMPRKEFFLQRKPPMLQPLALPPGLSVHQALERVLRLPAVASKRYLTNKVDRSVGGLVAQQQCVGPLQTPLADVAVVALSHEELIGAATALGEQPVKSLLDPKVAARLAVAEALTNLVFALVTDLRDVKCSGNWMWAAKLPGEGAALADACEAMVAVMAALGVAVDGGKDSLSMAARVGTETVRAPGSLVISAYAVCPDITATVTPDLKHPEGRGHLLYVALSPGQHRLGGTALAQCFSQLGEHPPDLDLPENLVRAFSITQGLLKDRLLCSGHDVSDGGLVTCLLEMAFAGNCGLQVDVPVPRVDVLSVLFAEEPGLVLEVQEPDLAQVLKRYRDAGLHCLELGHTGEAGPHAMVRVSVNGAVVLEEPVGELRALWEETSFQLDRLQAEPRCVAEEERGLRERMGPSYCLPPTFPKASVPREPGGPSPRVAILREEGSNGDREMADAFHLAGFEVWDVTMQDLCSGAIGLDTFRGVAFVGGFSYADVLGSAKGWAAAVTFHPRAGAELRRFRKRPDTFSLGVCNGCQLLALLGWVGGDPNEDAAEMGPDSQPARPGLLLRHNLSGRYESRWASVRVGPGPALMLRGMEGAVLPVWSAHGEGYVAFSSPELQAQIEARGLAPLHWADDDGNPTEQYPLNPNGSPGGVAGICSCDGRHLAVMPHPERAVRPWQWAWRPPPFDTLTTSPWLQLFINARNWTLEGSC [PFAS],-0.0731,0.146,51.9,51.5,-3.18,-3.7
MKLSLTKVVNGCRLGKIKNLGKTGDHTMDIPGCLLYTKTGSAPHLTHHTLHNIHGVPAMAQLTLSSLAEHHEVLTEYKEGVGKFIGMPESLLYCSLHDPVSPCPAGYVTNKSVSVWSVAGRVEMTVSKFMAIQKALQPDWFQCLSDGEVSCKEATSIKRVRKSVDRSLLFLDNCLRLQEESEVLQKSVIIGVIEGGDVMEERLRSARETAKRPVGGFLLDGFQGNPTTLEARLRLLSSVTAELPEDKPRLISGVSRPDEVLECIERGVDLFESFFPYQVTERGCALTFSFDYQPNPEETLLQQNGTQEEIKCMDQIKKIETTGCNQEITSFEINLKEKKYQEDFNPLVRGCSCYCCKNHTRAYIHHLLVTNELLAGVLLMMHNFEHYFGFFHYIREALKSDKLAQLKELIHRQAS [QTRTD1],-0.121,0.116,54.6,54.3,-0.725,-2.32

# Source: the supplement of paper PMC5998384
